Source: PMC4955526 (2017)
Read-outs that look alike come from different tables or passages of the source.

B2: BMP-4 (protein)
chain: SPKHHSQRARKKNKNCRRHSLYVDFSDVGWNDWIVAPPGYQAFYCHGDCPFPLADHLNSTNHAIVQTLVNSVNSSIPKACCVPTELSAISMLYLDEYDKVVLKNYQEMVVEGCGCR

Assays:
[1] = target: B2; assay: SPR competition vs BMPRII-Fc
[2] = target: B2; assay: SPR competition vs Cerberus-Fc
[3] = target: B2; assay: SPR competition vs ActRIIA-Fc
[4] = target: B2; assay: SPR competition vs BMPRII-Fc
[5] = target: B2; assay: SPR competition vs BMPRII-Fc
[6] = target: B2; assay: SPR competition vs ActRIIA-Fc
[7] = target: B2; assay: SPR competition vs ALK3-Fc
[8] = target: B2; assay: SPR competition vs Cerberus-Fc
[9] = target: B2; assay: SPR competition vs ALK3-Fc
[10] = target: B2; assay: SPR competition vs Cerberus-Fc
[11] = target: B2; assay: SPR competition vs ActRIIA-Fc
[12] = target: B2; assay: SPR competition vs ActRIIA-Fc
[13] = target: B2; assay: SPR competition vs BMPRII-Fc
[14] = target: B2; assay: SPR competition vs Cerberus-Fc
[15] = target: B2; assay: SPR competition vs ALK3-Fc
[16] = target: B2; assay: SPR competition vs ActRIIA-Fc
[17] = target: B2; assay: SPR competition vs ALK3-Fc
[18] = target: T1, ActRIIA-Fc ECD (Homo sapiens, UniProt P27037); assay: SPR
[19] = target: T2, BMPRII-Fc ECD (Homo sapiens, UniProt Q13873); assay: SPR
T2 chain: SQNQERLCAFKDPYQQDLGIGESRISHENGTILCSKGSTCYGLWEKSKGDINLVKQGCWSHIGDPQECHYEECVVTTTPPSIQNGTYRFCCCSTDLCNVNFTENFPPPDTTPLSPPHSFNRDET

[20] = target: T3, Cerberus-Fc (Homo sapiens, UniProt O95813); assay: SPR
T3 chain: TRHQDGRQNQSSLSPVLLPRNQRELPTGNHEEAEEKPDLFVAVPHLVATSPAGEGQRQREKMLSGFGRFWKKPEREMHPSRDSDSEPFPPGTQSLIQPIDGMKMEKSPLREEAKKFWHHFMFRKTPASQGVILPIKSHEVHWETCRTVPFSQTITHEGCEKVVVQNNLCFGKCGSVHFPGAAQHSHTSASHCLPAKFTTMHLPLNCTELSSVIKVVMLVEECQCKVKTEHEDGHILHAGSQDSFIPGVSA

[21] = target: T4, ALK3-Fc ECD (Homo sapiens, UniProt P36894); assay: SPR
T4 chain: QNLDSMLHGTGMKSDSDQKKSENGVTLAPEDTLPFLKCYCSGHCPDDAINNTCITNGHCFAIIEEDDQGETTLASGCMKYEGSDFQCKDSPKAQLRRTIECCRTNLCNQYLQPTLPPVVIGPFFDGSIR

[22] = target: T1, ActRIIA-Fc ECD; assay: SPR; remark: listed apart in the source
[23] = target: T3, Cerberus-Fc; assay: SPR

T1 sequence (P27037 20-135): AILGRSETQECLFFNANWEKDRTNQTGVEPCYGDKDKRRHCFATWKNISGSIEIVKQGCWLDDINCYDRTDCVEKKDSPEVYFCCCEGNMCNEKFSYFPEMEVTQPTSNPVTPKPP

B1: Cerberus (protein)
chain: TRHQDGRQNQSSLSPVLLPRNQRELPTGNHEEAEEKPDLFVAVPHLVATSPAGEGQRQREKMLSGFGRFWKKPEREMHPSRDSDSEPFPPGTQSLIQPIDGMKMEKSPLREEAKKFWHHFMFRKTPASQGVILPIKSHEVHWETCRTVPFSQTITHEGCEKVVVQNNLCFGKCGSVHFPGAAQHSHTSASHCLPAKFTTMHLPLNCTELSSVIKVVMLVEECQCKVKTEHEDGHILHAGSQDSFIPGVSA
IC50 [1]: 138 nM
IC50 [2]: 99.7 nM
IC50 [3]: 239 nM
IC50 [4]: 166 nM
IC50 [5]: 132 nM
IC50 [6]: 305 nM
IC50 [7]: 134 nM
IC50 [8]: 57.6 nM
IC50 [9]: 289 nM
IC50 [10]: 46.6 nM
IC50 [11]: 56 nM
IC50 [12]: 58 nM
IC50 [13]: 153 nM
IC50 [14]: 56.7 nM
IC50 [15]: 303 nM
IC50 [16]: 266 nM
IC50 [17]: 245 nM

B2
Kd [18]: 3.26 nM
Kd [19]: 8.13 nM
Kd [20]: 2.24 nM
Kd [21]: 0.193 nM
Kd [22]: 2.85 nM
Kd [23]: 2.73 nM
